The source of these data is PMC4872087 (Nucleic Acids Research, 2016).

Data set [1] addresses Histone H3K4me3 (Homo sapiens) (UniProt P68431). Description: ITC. The note with it: cited from earlier work.
Data set [2] has as its target T1, Spindlin1, expressed by HL-60 suspension cells (human (endogenous in HL-60), UniProt Q9Y657 1-262).
T1 construct: Spindlin1, endogenous in HL-60 cells, detected by Western blot with an anti-Spindlin1 antibody; also called Spindlin1 (CETSA); source: endogenous, HL-60 cell lysate
Description: cellular thermal shift assay (CETSA) on cell lysate; HL-60 cell lysate treated with 500 μM H3(1–12)K4me3 or, as control, H3(1–21)K4me0 at 37°C for 60 min; heated 3 min at a temperature gradient; soluble Spindlin1 by Western blot; apparent Tagg. The note with it: one partner purified.

For data set [3], the target named is T2, His-JMJD2C(874–988) (murine, UniProt Q8VCD7 874-988).
T2 construct: JMJD2C (lysine demethylase), murine, amino acids 874-988, double Tudor domain; Modified pET15b with a minimal, non-cleavable hexahistidine tag; also called JMJD2C-Td; JMJD2C-TD; source: E. coli BL21(DE3) codon plus, purified (Talon resin, gel filtration)
T2 sequence (looked up): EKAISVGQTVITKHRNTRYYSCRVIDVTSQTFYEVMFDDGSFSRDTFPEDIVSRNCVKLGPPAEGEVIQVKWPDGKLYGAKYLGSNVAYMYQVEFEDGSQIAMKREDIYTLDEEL
Description: fluorescent thermal shift assay (FTSA); 0.4 mg/ml His-JMJD2C(874–988), 5x SYPRO Orange, dilution series of H3(1–12)K4me3; KD by regression of Tm against ligand concentration. The note with it: both partners purified.

In data set [4] the target is T3, His-Spindlin1(49–262) (human, UniProt Q9Y657 49-262).
T3 construct: Spindlin1, human, amino acids 49-262; Modified pET15b with a minimal, non-cleavable hexahistidine tag; also called recombinant Spindlin1; source: E. coli BL21(DE3) codon plus, purified (Talon beads, gel filtration on superdex S75)
Description: fluorescence polarisation; FP displacement assay: 100 nM His-Spindlin1(49–262), 10 nM FL-H3K4me3, dilution series of unlabeled competitor; incubation 15, 30, 60 and 90 min (IC50 values in that order); 25°C. The note with it: both partners purified.

The target in data set [5] is T2, His-JMJD2C(874–988). Description: fluorescence polarisation; FP displacement assay: 10 μM His-JMJD2C(874–988), 15 nM FL-H3K4me3, dilution series of unlabeled H3(1–12)K4me3. The note with it: both partners purified.
For data set [6], the target named is T3, His-Spindlin1(49–262). The data set can be described thus: fluorescent thermal shift assay (FTSA); 0.1 mg/ml His-Spindlin1(49–262), 5x SYPRO Orange, dilution series of H3(1–12)K4me3; 100 mM Hepes pH 7.5, 150 mM NaCl; KD by regression of Tm against ligand concentration. The note with it: both partners purified.
Data set [7] concerns the target T3, His-Spindlin1(49–262). Description: AlphaScreen or HTRF; AlphaLISA displacement assay: 15 nM His-Spindlin1(49–262), 30 nM biotin-H3(1–23)K4me3, dilution series of unlabeled competitor; incubation 15, 30, 60 and 90 min (IC50 values in that order); 25 mM Hepes pH 7.5, 100 mM NaCl, 1 mg/ml BSA, 0.05% CHAPS; 25°C. The note with it: both partners purified.
Data set [8] deals with T2, His-JMJD2C(874–988). Description: AlphaScreen or HTRF; AlphaLISA displacement assay with His-JMJD2C(874–988) and biotin-H3(1–23)K4me3 (methods: 300 nM and 25 nM; legend: 5 μM and 200 nM), dilution series of unlabeled H3(1–12)K4me3; beads 0.02 mg/ml. The note with it: both partners purified.
Data set [9] concerns the target T3, His-Spindlin1(49–262). Description: fluorescence polarisation; His-Spindlin1(49–262) 0.06 to 750 nM titrated against 10 nM FL-H3K4me3; 60 min at 25°C; corrected for unspecific binding with 10 μM unlabeled H3(1–12)K4me3; one-site binding fit; 25 mM Hepes pH 7.5, 100 mM NaCl, 1 mg/ml BSA, 0.05% CHAPS. The note with it: both partners purified.
The target of data set [10] is T2, His-JMJD2C(874–988). The data set can be described thus: fluorescence polarisation; KD determination of the binding of FL-H3K4me3 to JMJD2C-Td; same optimization route as for Spindlin1. The note with it: both partners purified.

Values joined by “and” are separate entries in the source; they are usually repeats but may differ in a detail not shown here. Equal values may be shown once. Ends that are not written are not given here. Me3 = trimethyl (trimethylated lysine)

T3 sequence (Q9Y657 49-262): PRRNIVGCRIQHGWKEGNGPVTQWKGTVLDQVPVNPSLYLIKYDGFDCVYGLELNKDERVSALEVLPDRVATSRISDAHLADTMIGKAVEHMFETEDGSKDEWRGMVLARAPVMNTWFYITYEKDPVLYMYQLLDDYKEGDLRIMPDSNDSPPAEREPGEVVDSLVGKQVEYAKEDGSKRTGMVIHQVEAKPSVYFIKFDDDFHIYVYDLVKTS
T1 sequence (Q9Y657 whole entry): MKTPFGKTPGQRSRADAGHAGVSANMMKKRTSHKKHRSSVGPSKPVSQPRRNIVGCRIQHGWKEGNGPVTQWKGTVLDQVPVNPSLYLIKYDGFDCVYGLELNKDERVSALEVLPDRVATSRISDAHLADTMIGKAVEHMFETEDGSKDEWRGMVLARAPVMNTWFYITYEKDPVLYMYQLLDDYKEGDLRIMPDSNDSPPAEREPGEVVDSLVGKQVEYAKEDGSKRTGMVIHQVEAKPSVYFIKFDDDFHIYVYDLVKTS

For Spindlin1 (from UniProt Q9Y657), the Kd in [1] is 250 nM.

B1: H3(1–12)K4me3 (peptide)
peptide: ARTK(Me3)QTARKSTG
notes: histone H3, amino acids 1-12; Free N-terminus (H2N-) and free C-terminus (-COOH) as printed; also called unlabeled H3K4me3 peptide; unlabeled H3(1–12)K4me3; source: synthetic peptide, custom synthesized by Peptide Specialty Laboratories GmbH
Regarding B1, in [2], the “ΔTagg (against lysate treated with H3(1–21)K4me0)” value was determined as 5.9 °C. For the same molecule, the Kd is 12500 nM and 13300 nM in the data set with His-JMJD2C(874–988) [3]; 380 nM with His-Spindlin1(49–262) [6]. Moreover, the IC50 in the data set with His-Spindlin1(49–262) [4] was 180 nM and 232 nM and 202 nM and 201 nM; with His-JMJD2C(874–988) [5], 19100 ± 2100 nM; with His-Spindlin1(49–262) [7], 118 nM (3×) and 116 nM; with His-JMJD2C(874–988) [8], 4500 ± 200 nM.

B2: FL-H3K4me3 (peptide)
peptide: ARTKQTARKSTGGK
modifications: trimethylated lysine at position 4; mixed isomers of 5-(and-6)-carboxyfluorescein coupled to K14 side chain
notes: histone H3, N-terminal tail; also called fluorescent probe; fluorescein labeled peptide derived from histone H3; source: synthetic peptide, custom synthesized by Peptide Specialty Laboratories GmbH
As for B2, the values for the dissociation constant (Kd) with His-Spindlin1(49–262) [9] and in the data set with His-JMJD2C(874–988) [10] were 31 nM and 14500 ± 1900 nM, respectively.
